From IntAct's records for PubMed 25991726

B1: Ribosome maturation protein SBDS (Homo sapiens), Q9Y3A5 (parent)
chain: MSIFTPTNQIRLTNVAVVRMKRAGKRFEIACYKNKVVGWRSGVEKDLDEVLQTHSVFVNVSKGQVAKKEDLISAFGTDDQTEICKQILTKGEVQVSDKERHTQLEQMFRDIATIVADKCVNPETKRPYTVILIERAMKDIHYSVKTNKSTKQQALEVIKQLKEKMKIERAHMRLRFILPVNEGKKLKEKLKPLIKVIESEDYGQQLEIVCLIDPGCFREIDELIKKETKGKGSLEVLNLKDVEEGDEKFE
partner: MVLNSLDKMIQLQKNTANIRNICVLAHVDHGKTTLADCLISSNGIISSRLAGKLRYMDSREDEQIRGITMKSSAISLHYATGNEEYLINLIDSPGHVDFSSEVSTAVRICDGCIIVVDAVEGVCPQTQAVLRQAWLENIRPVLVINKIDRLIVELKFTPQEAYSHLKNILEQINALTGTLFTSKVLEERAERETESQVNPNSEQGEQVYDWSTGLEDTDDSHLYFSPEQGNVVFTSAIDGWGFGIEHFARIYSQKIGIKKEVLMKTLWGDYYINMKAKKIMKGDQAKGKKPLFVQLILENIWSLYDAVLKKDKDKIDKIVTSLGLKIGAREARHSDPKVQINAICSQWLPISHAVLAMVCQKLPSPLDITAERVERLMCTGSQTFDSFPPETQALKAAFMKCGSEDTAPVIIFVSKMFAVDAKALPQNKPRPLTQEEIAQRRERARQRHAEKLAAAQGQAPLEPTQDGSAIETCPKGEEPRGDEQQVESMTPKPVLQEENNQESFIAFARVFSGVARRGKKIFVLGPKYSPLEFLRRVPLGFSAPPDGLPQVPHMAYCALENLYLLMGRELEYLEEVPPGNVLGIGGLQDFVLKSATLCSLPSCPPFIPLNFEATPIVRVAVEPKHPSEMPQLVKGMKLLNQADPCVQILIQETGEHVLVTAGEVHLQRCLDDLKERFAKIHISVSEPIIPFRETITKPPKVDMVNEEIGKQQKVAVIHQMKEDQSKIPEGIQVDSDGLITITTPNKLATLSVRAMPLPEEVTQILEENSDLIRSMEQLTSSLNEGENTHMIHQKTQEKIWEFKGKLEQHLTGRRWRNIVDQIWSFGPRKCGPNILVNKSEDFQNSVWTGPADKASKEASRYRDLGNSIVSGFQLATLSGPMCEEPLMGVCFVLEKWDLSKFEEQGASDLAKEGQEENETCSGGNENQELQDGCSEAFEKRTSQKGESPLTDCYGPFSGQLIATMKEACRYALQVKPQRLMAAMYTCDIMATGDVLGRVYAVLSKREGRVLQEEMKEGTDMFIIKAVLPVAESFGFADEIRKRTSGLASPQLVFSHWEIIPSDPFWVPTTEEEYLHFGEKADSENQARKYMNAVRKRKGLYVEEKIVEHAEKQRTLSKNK

Variants of: B1
Conditions: with efl1_human EFL1, Q7Z2Z2

Variant	effect of a mutation on the interaction
MSIFTPTNQIRLTNVAVVRMKRAGKRFEIACYKNKVVGWRSGVEKDLDEVLQTHSVFVNVSKGQVAKKEDLISAFGTDDQTEICKQILTKGEVQVSDKERHTQLEQMFRDIATIVADKCVNPETKRPYTVILIERAMKDIHYLVKTNKSTKQQALEVIKQLKEKMKIERAHMRLRFILPVNEGKKLKEKLKPLIKVIESEDYGQQLEIVCLIDPGCFREIDELIKKETKGKGSLEVLNLKDVEEGDEKFE [S143L]	decreasing interaction strength
